Results published in publication doi:10.1101/2025.08.01.667454.

Target: PU.1[60–100]^TMR (human) (UniProt P17947)
Experiment: fluorescence polarisation

- Kd: > 50 µM
Substance: BAF60A^SWIB (domain or fragment)
